# Patent US20240317877A1 (IUCF HYU INDUSTRY UNIVERSITY COOPERATION FOUNDATION HANYANG …, published 2024)
# Tests used:
# [1] = target: T1, human transferrin receptor (human, UniProt P02786 89-760, limits assumed); assay: ELISA, plate-coated human TfR, anti-human IgG-HRP detection; WT run beside VH Y99H
# T1 construct: also called hTfR; human TfR
# Method: (§1) Human TfR (2.5 μg/ml) was coated on a 96-well half area plate (Corning) overnight at 4° C. Antibodies were prepared by diluting 5-fold from 50 nM to 0.64 pM. PBS (pH 7.5; same as blocking buffer) containing 5% skim milk was used for dilution. The plate was washed three times with PBS at pH 7.5, and then blocked with blocking buffer at room temperature for 2 hours and washed several more times. Various concentrations of anti-TfR antibodies were placed in the wells, and binding was induced for 2 hours. Unbound antibodies were then washed twice with PBST and twice with PBS.
# (§2) Horseradish peroxidase (HRP)-conjugated anti-human IgG antibody (AB frontier) was added and incubated for 2 hours. After the antibody washing step, 50 μl of TMB solution was added and incubated at 37° C. for 20 minutes. Finally, an equal volume of stop solution was added and mixed, and then the absorbance was measured at 450 nm using an EMax Microplate Reader (Molecular Devices). Steps other than TMB incubation were performed at room temperature.
# [2] = target: T1, human transferrin receptor; assay: ELISA, plate-coated human TfR, anti-human IgG-HRP detection; WT run beside VH Y98A
# Method: as §1, §2
# [3] = target: T1, human transferrin receptor; assay: ELISA, plate-coated human TfR, anti-human IgG-HRP detection; WT run beside VH Y27H
# Method: as §1, §2
# [4] = target: T1, human transferrin receptor; assay: ELISA, plate-coated human TfR, anti-human IgG-HRP detection; WT run beside VL Y94A
# Method: as §1, §2
# [5] = target: T1, human transferrin receptor; assay: ELISA, plate-coated human TfR, anti-human IgG-HRP detection
# Method: as §1, §2
# [6] = target: T1, human transferrin receptor; assay: ELISA, plate-coated human TfR; mutant against WT
# Method: as §1, §2
# T1 sequence (P02786 89-760 limits assumed): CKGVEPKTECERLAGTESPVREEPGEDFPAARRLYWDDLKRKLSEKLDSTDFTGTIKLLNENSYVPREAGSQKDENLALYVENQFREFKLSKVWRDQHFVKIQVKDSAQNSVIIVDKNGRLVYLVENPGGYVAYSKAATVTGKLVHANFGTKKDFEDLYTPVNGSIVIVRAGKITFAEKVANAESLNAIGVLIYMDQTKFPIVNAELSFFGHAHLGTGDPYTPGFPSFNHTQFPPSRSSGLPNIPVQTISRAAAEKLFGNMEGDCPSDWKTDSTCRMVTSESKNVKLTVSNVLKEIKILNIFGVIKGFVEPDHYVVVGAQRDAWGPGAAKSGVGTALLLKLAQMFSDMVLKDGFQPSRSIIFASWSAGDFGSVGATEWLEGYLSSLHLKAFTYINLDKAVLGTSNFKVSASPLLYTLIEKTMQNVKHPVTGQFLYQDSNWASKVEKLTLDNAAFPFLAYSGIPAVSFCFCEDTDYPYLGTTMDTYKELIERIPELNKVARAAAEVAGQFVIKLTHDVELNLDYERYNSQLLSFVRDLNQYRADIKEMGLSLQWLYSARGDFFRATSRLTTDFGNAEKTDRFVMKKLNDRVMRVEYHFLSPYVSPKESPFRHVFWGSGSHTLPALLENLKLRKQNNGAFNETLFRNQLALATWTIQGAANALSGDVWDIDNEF
Binder,EC50 [1],EC50 [2],EC50 [3],EC50 [4],EC50 [5],Fold-increase of EC50 (Reduced rate of binding affinity) [6]
"anti-human transferrin receptor antibody 128.1, wild type (WT) (antibody, V domains shown, The ELISA detects with anti-human IgG-HRP; also called anti-hTfR antibody; anti-TfR(WT)) VH: EVQLQQSGPELVKPGASMKISCKASGYSFTGYTMNWVKQSHGENLEWIGRINPHNGGTDYNQKFKDKAPLTVDKSSNTAYMELLSLTSEDSAVYYCARGYYYYSLDYWGQGTSVTVSS VL: QIVLTQSPAIMSASPGEKVTMTCSASSSIDYIHWYQQKSGTSPKRWIYDTSKLASGVPARFSGSGSGTSYSLTISSMEPEDAATYYCHQRNSYPWTFGGGTRLEIR",0.048 nM,0.53 nM,0.057 nM,0.44 nM,,
"anti-human transferrin receptor antibody 128.1 with VH Y98A mutation (antibody, V domains shown) VH: EVQLQQSGPELVKPGASMKISCKASGYSFTGYTMNWVKQSHGENLEWIGRINPHNGGTDYNQKFKDKAPLTVDKSSNTAYMELLSLTSEDSAVYYCARGYYAYSLDYWGQGTSVTVSS VL: QIVLTQSPAIMSASPGEKVTMTCSASSSIDYIHWYQQKSGTSPKRWIYDTSKLASGVPARFSGSGSGTSYSLTISSMEPEDAATYYCHQRNSYPWTFGGGTRLEIR",,,,,,> 100 fold
"anti-human transferrin receptor antibody 128.1 with VH Y99H mutation (antibody, V domains shown) VH: EVQLQQSGPELVKPGASMKISCKASGYSFTGYTMNWVKQSHGENLEWIGRINPHNGGTDYNQKFKDKAPLTVDKSSNTAYMELLSLTSEDSAVYYCARGYYYHSLDYWGQGTSVTVSS VL: QIVLTQSPAIMSASPGEKVTMTCSASSSIDYIHWYQQKSGTSPKRWIYDTSKLASGVPARFSGSGSGTSYSLTISSMEPEDAATYYCHQRNSYPWTFGGGTRLEIR",,,,,0.44 nM,9.2 fold

# Next, values leading:
EC50 [1],EC50 [2],EC50 [3],EC50 [4],EC50 [5],Fold-increase of EC50 (Reduced rate of binding affinity) [6],Binder
,,,,1.98 nM,35 fold,"anti-human transferrin receptor antibody 128.1 with VH Y27H mutation (antibody, V domains shown, Same vector format as WT (human IgG constant region with myc-His tag, human kappa CL); also called anti-TfR(VH Y27H)) VH: EVQLQQSGPELVKPGASMKISCKASGHSFTGYTMNWVKQSHGENLEWIGRINPHNGGTDYNQKFKDKAPLTVDKSSNTAYMELLSLTSEDSAVYYCARGYYYYSLDYWGQGTSVTVSS VL: QIVLTQSPAIMSASPGEKVTMTCSASSSIDYIHWYQQKSGTSPKRWIYDTSKLASGVPARFSGSGSGTSYSLTISSMEPEDAATYYCHQRNSYPWTFGGGTRLEIR"
,,,,0.52 nM,1.2 fold,"anti-human transferrin receptor antibody 128.1 with VL Y94A mutation (antibody, V domains shown) VH: EVQLQQSGPELVKPGASMKISCKASGYSFTGYTMNWVKQSHGENLEWIGRINPHNGGTDYNQKFKDKAPLTVDKSSNTAYMELLSLTSEDSAVYYCARGYYYYSLDYWGQGTSVTVSS VL: QIVLTQSPAIMSASPGEKVTMTCSASSSIDYIHWYQQKSGTSPKRWIYDTSKLASGVPARFSGSGSGTSYSLTISSMEPEDAATYYCHQRNSAPWTFGGGTRLEIR"
